In publication doi:10.1101/071720:

Biological target: recombinant pscC protein of Pseudomonas aeruginosa (PA01), His-GST fusion (Pseudomonas aeruginosa PA01)
Test: SEC

## recombinant pscC protein of Pseudomonas aeruginosa (PA01), His-GST fusion (domain or fragment)
  stoichiometry N: 2
